PMC7822592, “The half-life of the bone-derived hormone osteocalcin is regulated through O-glycosylation in mice, but not in humans” (eLife, 2020)
No end group written: not given here. O‑glycan = not defined here

Test: In vivo half-life assay, serum OCN after intraperitoneal injection in Bglap-/- mice
Parameters: species or system mouse
Settings: 40 ng/g i.p.; for serum OCN: ELISA; for in vivo half-life: estimated from declining phase after maximum at 30 min, serum ELISA
Procedure: For in vivo half-life assay, Bglap-/- male mice were injected intraperitoneally with 40 or 80 ng/g of body weight of mouse O-glycosylated ucOCN or non-glycosylated ucOCN, serum OCN level was analyzed at indicated time points using total mouse OCN ELISA. In all ex vivo and in vivo studies, mouse or human proteins were prepared in saline solution (0.9% NaCl) containing BSA (35 mg/ml) as a carrier.

For “O-gly ucOCN: O-glycosylated uncarboxylated mouse osteocalcin produced and purified from HEK293 as Fc fusion, released by thrombin (YLGASVPS(O‑glycan)PDPLEPTREQCELNPACDELSDQYGLKTAYKRIYGITI; ends and bridges not checked; also: O-glycosylated (HexNAc, Hex, NANA); UniProt P86546 50-95, looked up)”, the “serum OCN” value (Bglap-/- male mice fasted 16 hr, 15 min, mouse 1) was 24.4 ng/mL, the “serum OCN” value (Bglap-/- male mice fasted 16 hr, 15 min, mouse 2) was 19.4 ng/mL and the “serum OCN” value (Bglap-/- male mice fasted 16 hr, 15 min, mouse 3) was 16.3 ng/mL. For the same substance, the “serum OCN” value (Bglap-/- male mice fasted 16 hr, 15 min, mouse 4) was 21.1 ng/mL, the “serum OCN” value (Bglap-/- male mice fasted 16 hr, 15 min, mouse 5) was 17.9 ng/mL and the “serum OCN” value (Bglap-/- male mice fasted 16 hr, 30 min, mouse 1) was 30.7 ng/mL. The “serum OCN” value (Bglap-/- male mice fasted 16 hr, 30 min, mouse 2) was 26.9 ng/mL, the “serum OCN” value (Bglap-/- male mice fasted 16 hr, 30 min, mouse 3) was 24.6 ng/mL and the “serum OCN” value (Bglap-/- male mice fasted 16 hr, 30 min, mouse 4) was 23.6 ng/mL. The “serum OCN” value (Bglap-/- male mice fasted 16 hr, 30 min, mouse 5) was 20.9 ng/mL, the “serum OCN” value (Bglap-/- male mice fasted 16 hr, 60 min, mouse 1) was 27.5 ng/mL and the “serum OCN” value (Bglap-/- male mice fasted 16 hr, 60 min, mouse 2) was 23.9 ng/mL. For the same substance, the “serum OCN” value (Bglap-/- male mice fasted 16 hr, 60 min, mouse 3) was 23.9 ng/mL, the “serum OCN” value (Bglap-/- male mice fasted 16 hr, 60 min, mouse 4) was 20.4 ng/mL and the “serum OCN” value (Bglap-/- male mice fasted 16 hr, 60 min, mouse 5) was 19.0 ng/mL. The “serum OCN” value (Bglap-/- male mice fasted 16 hr, 90 min, mouse 1) was 26.3 ng/mL, the “serum OCN” value (Bglap-/- male mice fasted 16 hr, 90 min, mouse 2) was 20.0 ng/mL and the “serum OCN” value (Bglap-/- male mice fasted 16 hr, 90 min, mouse 3) was 21.1 ng/mL. For the same substance, the “serum OCN” value (Bglap-/- male mice fasted 16 hr, 90 min, mouse 4) was 17.6 ng/mL, the “serum OCN” value (Bglap-/- male mice fasted 16 hr, 90 min, mouse 5) was 15.7 ng/mL and the “serum OCN” value (Bglap-/- male mice fasted 16 hr, 120 min, mouse 1) was 21.6 ng/mL. The “serum OCN” value (Bglap-/- male mice fasted 16 hr, 120 min, mouse 2) was 17.9 ng/mL, the “serum OCN” value (Bglap-/- male mice fasted 16 hr, 120 min, mouse 3) was 18.4 ng/mL and the “serum OCN” value (Bglap-/- male mice fasted 16 hr, 120 min, mouse 4) was 17.6 ng/mL. The “serum OCN” value (Bglap-/- male mice fasted 16 hr, 120 min, mouse 5) was 15.6 ng/mL, the in vivo half-life (Bglap-/- male mice fasted 16 hr) was 182 min and the in vivo half-life (Bglap-/- male mice fasted 16 hr, listed as O-glycosylated ucOCN) was ~ 182 min. For the same substance, the “serum OCN” value (fed Bglap-/- male mice, 15 min, mouse 1) was 46.2 ng/mL, the “serum OCN” value (fed Bglap-/- male mice, 15 min, mouse 2) was 44.9 ng/mL and the “serum OCN” value (fed Bglap-/- male mice, 15 min, mouse 3) was 53.1 ng/mL. For the same substance, the “serum OCN” value (fed Bglap-/- male mice, 15 min, mouse 4) was 55.0 ng/mL, the “serum OCN” value (fed Bglap-/- male mice, 15 min, mouse 5) was 58.1 ng/mL and the “serum OCN” value (fed Bglap-/- male mice, 15 min, mouse 6) was 56.8 ng/mL. The “serum OCN” value (fed Bglap-/- male mice, 15 min, mouse 7) was 44.9 ng/mL, the “serum OCN” value (fed Bglap-/- male mice, 15 min, mouse 8) was 33.3 ng/mL and the “serum OCN” value (fed Bglap-/- male mice, 15 min, mouse 9) was 33.3 ng/mL. The “serum OCN” value (fed Bglap-/- male mice, 15 min, mouse 10) was 59.4 ng/mL, the “serum OCN” value (fed Bglap-/- male mice, 30 min, mouse 1) was 51.1 ng/mL and the “serum OCN” value (fed Bglap-/- male mice, 30 min, mouse 2) was 72.5 ng/mL. The “serum OCN” value (fed Bglap-/- male mice, 30 min, mouse 3) was 64.1 ng/mL, the “serum OCN” value (fed Bglap-/- male mice, 30 min, mouse 4) was 65.1 ng/mL and the “serum OCN” value (fed Bglap-/- male mice, 30 min, mouse 5) was 69.7 ng/mL. The “serum OCN” value (fed Bglap-/- male mice, 30 min, mouse 6) was 73.2 ng/mL, the “serum OCN” value (fed Bglap-/- male mice, 30 min, mouse 7) was 40.4 ng/mL and the “serum OCN” value (fed Bglap-/- male mice, 30 min, mouse 8) was 59.8 ng/mL. For the same substance, the “serum OCN” value (fed Bglap-/- male mice, 30 min, mouse 9) was 47.5 ng/mL, the “serum OCN” value (fed Bglap-/- male mice, 30 min, mouse 10) was 72.5 ng/mL and the “serum OCN” value (fed Bglap-/- male mice, 60 min, mouse 1) was 25.1 ng/mL. For the same substance, the “serum OCN” value (fed Bglap-/- male mice, 60 min, mouse 2) was 44.3 ng/mL, the “serum OCN” value (fed Bglap-/- male mice, 60 min, mouse 3) was 31.5 ng/mL and the “serum OCN” value (fed Bglap-/- male mice, 60 min, mouse 4) was 48.0 ng/mL. The “serum OCN” value (fed Bglap-/- male mice, 60 min, mouse 5) was 45.3 ng/mL, the “serum OCN” value (fed Bglap-/- male mice, 60 min, mouse 6) was 33.8 ng/mL and the “serum OCN” value (fed Bglap-/- male mice, 60 min, mouse 7) was 15.4 ng/mL. For the same substance, the “serum OCN” value (fed Bglap-/- male mice, 60 min, mouse 8) was 40.4 ng/mL, the “serum OCN” value (fed Bglap-/- male mice, 60 min, mouse 9) was 23.7 ng/mL and the “serum OCN” value (fed Bglap-/- male mice, 60 min, mouse 10) was 29.5 ng/mL. For the same substance, the “serum OCN” value (fed Bglap-/- male mice, 90 min, mouse 1) was 11.0 ng/mL, the “serum OCN” value (fed Bglap-/- male mice, 90 min, mouse 2) was 19.1 ng/mL and the “serum OCN” value (fed Bglap-/- male mice, 90 min, mouse 3) was 10.0 ng/mL. The “serum OCN” value (fed Bglap-/- male mice, 90 min, mouse 4) was 23.7 ng/mL, the “serum OCN” value (fed Bglap-/- male mice, 90 min, mouse 5) was 20.1 ng/mL and the “serum OCN” value (fed Bglap-/- male mice, 90 min, mouse 6) was 15.5 ng/mL. For the same substance, the “serum OCN” value (fed Bglap-/- male mice, 90 min, mouse 7) was 7.2 ng/mL, the “serum OCN” value (fed Bglap-/- male mice, 90 min, mouse 8) was 19.6 ng/mL and the “serum OCN” value (fed Bglap-/- male mice, 90 min, mouse 9) was 11.8 ng/mL. The “serum OCN” value (fed Bglap-/- male mice, 90 min, mouse 10) was 11.4 ng/mL, the “serum OCN” value (fed Bglap-/- male mice, 120 min, mouse 1) was 5.5 ng/mL and the “serum OCN” value (fed Bglap-/- male mice, 120 min, mouse 2) was 9.5 ng/mL. For the same substance, the “serum OCN” value (fed Bglap-/- male mice, 120 min, mouse 3) was 4.6 ng/mL.
